B1: ZNF8 (parent)
chain: VHVIGVEEPSVGASMLFDIREST
B2: KRT34 (parent)
chain: PTVDLNQVLNETRSQYEALVETNR

Variants of: B1
Assay: protein stability index of a GFP-peptide fusion (GPS, HEK-293T) (PSI 1-6); higher = more stable
Settings: c terminus: native
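Note: lentivirally expressed fusions sorted by FACS into six bins by GFP to DsRed ratio, PSI derived from sequencing read proportions per bin multiplied by bin number.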

Protein stability index of substitutions, site by site:
T23: S 2.48 | Y 1.76 | Q 2.09 | M 2.14 | V 2.06 | P 2.04 | N 2.14 | R 2.63

Variants of: B2
Assay: as above
Settings: c terminus: a fixed tail appended

Protein stability index of substitutions, site by site:
T2: S 3.27 | F 1.89 | D 3.82 | M 1.85 | N 3.72 | H 3.38 | K 3.14 | C 2.67 | P 3.01 | E 2.78 | G 4.14 | V 2.52 | Q 2.71 | L 1.85 | I 2.99 | R 3.66 | Y 1.65 | W 1.4
A18: K 3.16 | E 3.69 | D 3.92 | I 3.7 | M 3.74 | F 3.59 | H 4.4 | P 4.6 | L 3.66 | C 4.01 | N 3.3 | G 4.03
L5: H 3.8 | A 2.51 | M 4.24 | G 4.68 | V 2.86 | K 4.8 | N 4.57 | P 3.77 | E 4.61 | W 3.3 | T 4.8 | I 2.24 | Y 2.77 | D 4.67 | Q 4.38 | F 3.92 | R 4.53 | S 4.13 | C 3.68
D4: F 3.19 | P 3.05 | M 3.21 | W 2.59 | R 4.48 | Y 3.44 | K 3.94 | C 2.97 | G 3.62 | H 3.56 | V 4.02 | A 4.21 | Q 4.34 | L 3.56 | S 2.73 | N 4.38 | I 3.58 | T 3.5 | E 4.01
Y16: R 5.42 | K 4.57 | C 4.44 | N 4.99 | S 4.98 | Q 5.57 | L 4.19 | G 4.89 | H 5.25 | D 5.26 | I 4.23 | M 4.76 | V 4.9 | T 4.58 | P 4.8 | E 5.44 | A 5.1 | W 3.63 | F 3.65
Q15: M 2.35 | V 3.19 | I 2.96 | D 5.05 | P 4.34 | W 1.94 | K 3.89 | E 4.16 | L 2.25 | F 2.82 | S 4.38 | C 2.94 | G 4.19 | H 3.78 | R 4.16 | Y 2.91 | A 4 | N 4.02
E17: S 3.85 | L 3.85 | G 4.02 | R 3.83 | P 3.62 | D 4.67 | C 2.93 | H 3.93 | V 3.7 | Q 3.88 | K 4.12 | W 3.35 | M 3.68 | T 4.23 | I 2.71 | A 3.77 | N 4.05 | F 3.08 | Y 3.22
P1: Q 3.77 | L 2.88 | C 2.77 | N 3.21 | D 4.12 | A 3.41 | V 2.5 | T 3.96 | H 3.97 | E 2.82 | I 2.42 | G 3.5 | M 3.31 | W 2.95 | R 3.43 | F 3.22 | S 3.82 | K 3.83 | Y 2.84
V8: Q 4.3 | I 3.57 | K 4.22 | Y 2.29 | P 4.2 | N 4.58 | C 3.48 | A 3.56 | S 4.18 | G 4.2 | H 3.52 | T 3.76 | L 1.43 | R 4.67 | D 4.64 | E 4.4 | M 2.88 | W 2.56
R13: F 3.07 | K 3.31 | D 5.18 | A 3.85 | Q 3.97 | P 4.79 | L 3.34 | C 3.57 | I 2.83 | V 3.42 | T 4.27 | Y 3.64 | W 3.71 | E 5.07 | N 5.01 | S 4.67 | G 4.52 | H 3.46
Q7: S 3.62 | W 3.08 | N 3.92 | Y 3.65 | D 3.66 | F 3.61 | H 4 | E 3.25 | P 4.79 | V 2.37 | C 3.95 | K 3.98 | G 4.25 | R 3.65 | I 2.99 | M 3.62 | L 4.08 | A 3.13 | T 2.75
T12: C 3.49 | V 3.04 | K 4 | F 2.4 | I 1.84 | S 3.54 | A 1.8 | N 4.03 | G 4.39 | P 4.12 | H 1.75 | R 4.28 | Q 2.21 | D 5.22 | E 4.27
E11: S 3.85 | M 3.95 | Y 3.72 | Q 3.93 | V 4.44 | T 3.78 | H 4.18 | A 4.06 | P 4.1 | I 3.42 | C 3.91 | W 3.15 | L 3.36 | N 3.69 | D 3.81 | F 3.22 | K 3.79 | G 4.05 | R 4.03
N6: H 2.92 | Y 1.71 | P 4.8 | M 1.9 | C 2.51 | W 2.5 | G 3.79 | D 2.79 | S 3.33 | I 2.03 | E 2.56 | A 2.48 | Q 2.56 | L 2.14 | F 2.42 | V 2 | K 2.98 | T 3.05 | R 3.9
V3: Q 3.05 | K 2.76 | E 4.03 | F 3.65 | A 3.63 | P 4.62 | R 2.92 | N 4.46 | H 3.8 | D 4.76 | S 4.28 | C 4.07 | I 3.7 | W 5.02 | L 2.65 | M 2.45 | T 3.89 | G 4.15 | Y 2.83
S14: F 3.3 | I 2.44 | W 2.74 | R 2.15 | E 2.23 | L 2.12 | Q 2.34 | G 3.56 | H 3.32 | C 2.25 | Y 3.33 | K 2.47 | P 4.1 | T 2.96 | D 2.87 | A 2.09 | V 2.82 | M 1.65
N10: H 3.19 | I 2.47 | V 3.21 | D 3.74 | K 2.7 | A 2.44 | G 4.35 | R 3.21 | L 1.58 | S 3.46 | P 4.55 | W 3.02 | T 2.75 | Q 2.5 | C 2.82 | E 2.41 | Y 2.91 | M 2.49 | F 2.63
L9: K 4.45 | S 5.03 | F 3.45 | Y 3.61 | E 4.52 | C 4.45 | T 4.61 | Q 3.36 | D 5.55 | H 4.66 | V 4.28 | N 4.76 | P 5.34 | R 4.36 | A 4.09 | G 4.64 | W 4.04 | M 4.21 | I 3.14
